In US20210355227A1 (Regeneron, published 2021):

Tests used:
mouse GLP1R-MMH [1] = biological target: T1, mouse GLP1R-MMH (mouse); test: SPR Biacore 4000, mAb captured by anti-human Fc, 37 C
T1 construct: It was injected at 100 nM only; also called mGLP1R-MMH; monomeric mouse GLP1R
T1 chain: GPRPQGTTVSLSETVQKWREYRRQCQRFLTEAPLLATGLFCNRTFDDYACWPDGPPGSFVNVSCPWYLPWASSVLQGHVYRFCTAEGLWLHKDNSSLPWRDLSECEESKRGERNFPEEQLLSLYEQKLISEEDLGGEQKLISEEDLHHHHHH
Experimental: (§1) The equilibrium dissociation constant (KD) for GLP1R binding to selected GLP1R monoclonal antibodies (mAbs) was determined using a real-time surface plasmon resonance biosensor using a Biacore 4000 instrument. All binding studies were performed in 10 mM HEPES, 150 mM NaCl, 3 mM EDTA, and 0.05% v/v Surfactant Tween-20, pH 7.4 (HBS-ET) running buffer at 25° C. and 37° C. The Biacore CM5 sensor chip surface was first derivatized by amine coupling with human Fc specific mouse mAb to capture different GLP1R mAbs. […] At the end of each cycle, the GLP1R mAb capture surface was regenerated using a 12 sec injection of 20 mM phosphoric acid.
(§2) The association rate (kₐ) and dissociation rate (kd) were determined by fitting the real-time binding sensorgrams to a 1:1 binding model with mass transport limitation using Scrubber 2.0 c curve-fitting software. Binding dissociation equilibrium constant (KD) and dissociative half-life (t½) were calculated from the kinetic rates as:

[2] = biological target: T2, human GLP1R expressed with mouse IgG2a Fc (human); test: SPR Biacore 4000, mAb captured by anti-human Fc, 25 C
T2 construct: It is probably the N-terminal region, as for hGLP1R-MMH, but the sentence is ambiguous; also called hGLP1R-mFc
T2 chain: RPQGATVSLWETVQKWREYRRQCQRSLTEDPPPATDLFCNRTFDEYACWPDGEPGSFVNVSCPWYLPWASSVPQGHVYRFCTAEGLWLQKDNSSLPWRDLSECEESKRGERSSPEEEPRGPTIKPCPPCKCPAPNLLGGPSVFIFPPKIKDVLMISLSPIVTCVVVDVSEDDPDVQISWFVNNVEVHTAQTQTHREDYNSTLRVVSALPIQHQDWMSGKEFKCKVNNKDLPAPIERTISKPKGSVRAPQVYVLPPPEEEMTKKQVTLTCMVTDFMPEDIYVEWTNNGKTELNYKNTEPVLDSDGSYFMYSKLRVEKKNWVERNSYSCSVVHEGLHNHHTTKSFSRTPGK
Experimental: as §1, §2

[3] = biological target: T3, macaca fascicularis GLP1R-MMH (macaca fascicularis); test: SPR Biacore 4000, mAb captured by anti-human Fc, 37 C
T3 construct: also called mfGLP1R-MMH; monomeric cynomolgus GLP1R
T3 chain: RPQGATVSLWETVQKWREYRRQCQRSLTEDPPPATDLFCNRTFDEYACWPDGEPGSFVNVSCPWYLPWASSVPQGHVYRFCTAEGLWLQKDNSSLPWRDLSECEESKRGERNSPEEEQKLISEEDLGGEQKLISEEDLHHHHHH
Experimental: as §1
(§3) The association rate (kₐ) and dissociation rate (kd) were determined by fitting the real-time binding sensorgrams to a 1:1 binding model with mass transport limitation using Scrubber 2.0 c curve-fitting software.

[4] = biological target: T4, N-terminal region of human GLP1R-MMH (human); test: as above
T4 construct: also called hGLP1R-MMH
T4 chain: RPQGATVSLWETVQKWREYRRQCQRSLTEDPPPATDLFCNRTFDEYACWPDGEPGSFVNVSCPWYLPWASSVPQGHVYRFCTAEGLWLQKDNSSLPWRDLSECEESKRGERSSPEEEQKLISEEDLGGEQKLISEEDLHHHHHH
Experimental: as §1, §3

[5] = biological target: T4, N-terminal region of human GLP1R-MMH; test: SPR Biacore 4000, mAb captured by anti-human Fc, 25 C
Experimental: as §1, §3

[6] = biological target: T5, in-line fusion protein of human desA-GLP1 and GLP1R-MMH (human); test: SPR Biacore 4000, mAb captured by anti-human Fc, 37 C
T5 construct: also called hdesA-GLP1_GLP1R-MMH
T5 chain: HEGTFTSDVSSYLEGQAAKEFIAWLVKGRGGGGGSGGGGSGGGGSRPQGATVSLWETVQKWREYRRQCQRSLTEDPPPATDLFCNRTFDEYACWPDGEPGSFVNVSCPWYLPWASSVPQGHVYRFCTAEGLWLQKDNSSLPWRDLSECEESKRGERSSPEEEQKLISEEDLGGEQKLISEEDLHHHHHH
Experimental: as §1, §3

[7] = biological target: T2, human GLP1R expressed with mouse IgG2a …; test: as above
Experimental: as §1, §2

[8] = biological target: T3, macaca fascicularis GLP1R-MMH; test: SPR Biacore 4000, mAb captured by anti-human Fc, 25 C
Experimental: as §1, §3

mouse GLP1R-MMH [9] = biological target: T1, mouse GLP1R-MMH; test: as above
Experimental: as §1, §2

[10] = biological target: T5, in-line fusion protein of human …; test: as above
Experimental: as §1, §2

[11] = biological target: full-length human GLP1R on HEK293/CRE-luc/GLP1R cells (human, UniProt P43220 24-463); test: cell-based or functional assay

B1: mAb37639 (antibody, human IgG4 S228P, kappa, V domains shown)
VH: EVQLLESGGGVVQPGGSLRLSCVASGFTFSSYAMSWVRQAPGKGLEWVSSISGSGGSTDNADSVKGRFTISRDNSKNTLYLQMNSLRAEDTAVYYCAKDRITIFGVVLNGAFDIWGQGTMVTVSS
VL: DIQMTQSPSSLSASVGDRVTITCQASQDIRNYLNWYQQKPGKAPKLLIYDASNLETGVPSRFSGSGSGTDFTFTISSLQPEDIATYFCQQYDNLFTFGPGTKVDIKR
notes: In SPR the mAbs were captured by a human-Fc-specific antibody
**Q.** What does the source list for B1?
**A.** 100 nM mGLP1R-MMH Bound (RU) (mouse GLP1R-MMH [1]): 97 RU; Kd (mouse GLP1R-MMH [1]): 22.1 nM; koff (mouse GLP1R-MMH [1]): 0.00959 s⁻¹; kon (mouse GLP1R-MMH [1]): 435000 M⁻¹ s⁻¹; t½ (mouse GLP1R-MMH [1]): 1.2 min; 100 nM hGLP1R-mFc Bound (RU) [2]: 122 RU; Kd [2]: 2.37 nM; koff [2]: 0.000156 s⁻¹; kon [2]: 65900 M⁻¹ s⁻¹; t½ [2]: 74 min; 100 nM mfGLP1R-MMH Bound (RU) [3]: 110 RU; Kd [3]: 1.94 nM; koff [3]: 0.000418 s⁻¹; kon [3]: 215000 M⁻¹ s⁻¹; t½ [3]: 28 min; 100 nM hGLP1R-MMH Bound (RU) [4]: 123 RU; Kd [4]: 0.632 nM; koff [4]: 0.000422 s⁻¹; kon [4]: 668000 M⁻¹ s⁻¹; t½ [4]: 27 min; 100 nM hGLP1R-MMH Bound (RU) [5]: 103 RU; Kd [5]: 0.474 nM; koff [5]: 0.000186 s⁻¹; kon [5]: 393000 M⁻¹ s⁻¹; t½ [5]: 62 min; 100 nM hdesA-GLP1_GLP1R-MMH Bound (RU) [6]: 21 RU; Kd [6]: 74.2 nM; koff [6]: 0.00127 s⁻¹; kon [6]: 17100 M⁻¹ s⁻¹; t½ [6]: 9 min; 100 nM hGLP1R-mFc Bound (RU) [7]: 185 RU; Kd [7]: 3.52 nM; koff [7]: 0.000354 s⁻¹; kon [7]: 101000 M⁻¹ s⁻¹; t½ [7]: 33 min; 100 nM mfGLP1R-MMH Bound (RU) [8]: 83 RU; Kd [8]: 1.42 nM; koff [8]: 0.000195 s⁻¹; kon [8]: 137000 M⁻¹ s⁻¹; t½ [8]: 59 min; 100 nM mGLP1R-MMH Bound (RU) (mouse GLP1R-MMH [9]): 85 RU; Kd (mouse GLP1R-MMH [9]): 16.9 nM; koff (mouse GLP1R-MMH [9]): 0.00454 s⁻¹; kon (mouse GLP1R-MMH [9]): 269000 M⁻¹ s⁻¹; t½ (mouse GLP1R-MMH [9]): 2.5 min; 100 nM hdesA-GLP1_GLP1R-MMH Bound (RU) [10]: 8 RU; Kd [10]: 16 nM; koff [10]: 0.00019 s⁻¹; kon [10]: 11900 M⁻¹ s⁻¹; t½ [10]: 61 min; % Inhibition of human GLP1R activation by 40 pM GLP1 (CRE-luciferase reporter) [11]: 100%; IC50 [M] of inhibition of human GLP1R activation by 40 pM GLP1 (CRE-luciferase reporter) [11]: 6.55e-09 M

B2: mAb36986 (antibody, human IgG4 S228P, kappa, V domains shown)
VH: QVQLVQSGTEVKKPGASVKVSCMASGYTFTTYGISWVRQAPGQGLEWMGWISAYNGNTKYAQRLQGRVTMTTDTSTTTAYMGLRGLRSDDTAVYFCARVTLSGRFDYWGQGTLVTVSP
VL: DIQMTQSPSSLSASVGDRVTITCQASQDISDYLNWYQQKPGKAPKLLIYDASNLETGVPSRFSGSGSGTDFTFTIRSLQPEDIATYYCQQYDNLPYTFGQGTKLEIKR
notes: as for B1
**Q.** Which results are given for B2?
**A.** 100 nM mGLP1R-MMH Bound (RU) (mouse GLP1R-MMH [1]): 70 RU; Kd (mouse GLP1R-MMH [1]): 74.7 nM; koff (mouse GLP1R-MMH [1]): 0.0485 s⁻¹; kon (mouse GLP1R-MMH [1]): 649000 M⁻¹ s⁻¹; t½ (mouse GLP1R-MMH [1]): 0.24 min; 100 nM hGLP1R-mFc Bound (RU) [2]: 187 RU; Kd [2]: 0.735 nM; koff [2]: 7.64e-05 s⁻¹; kon [2]: 104000 M⁻¹ s⁻¹; t½ [2]: 151 min; 100 nM mfGLP1R-MMH Bound (RU) [3]: 128 RU; Kd [3]: 1.59 nM; koff [3]: 0.000501 s⁻¹; kon [3]: 315000 M⁻¹ s⁻¹; t½ [3]: 23 min; 100 nM hGLP1R-MMH Bound (RU) [4]: 135 RU; Kd [4]: 0.594 nM; koff [4]: 0.000544 s⁻¹; kon [4]: 915000 M⁻¹ s⁻¹; t½ [4]: 21 min; 100 nM hGLP1R-MMH Bound (RU) [5]: 115 RU; Kd [5]: 0.139 nM; koff [5]: 9.97e-05 s⁻¹; kon [5]: 717000 M⁻¹ s⁻¹; t½ [5]: 116 min; 100 nM hdesA-GLP1_GLP1R-MMH Bound (RU) [6]: 28 RU; Kd [6]: 60.4 nM; koff [6]: 0.000987 s⁻¹; kon [6]: 16300 M⁻¹ s⁻¹; t½ [6]: 12 min; 100 nM hGLP1R-mFc Bound (RU) [7]: 246 RU; Kd [7]: 3.35 nM; koff [7]: 0.000432 s⁻¹; kon [7]: 129000 M⁻¹ s⁻¹; t½ [7]: 27 min; 100 nM mfGLP1R-MMH Bound (RU) [8]: 103 RU; Kd [8]: 0.424 nM; koff [8]: 0.000102 s⁻¹; kon [8]: 240000 M⁻¹ s⁻¹; t½ [8]: 113 min; 100 nM mGLP1R-MMH Bound (RU) (mouse GLP1R-MMH [9]): 88 RU; Kd (mouse GLP1R-MMH [9]): 20.1 nM; koff (mouse GLP1R-MMH [9]): 0.00902 s⁻¹; kon (mouse GLP1R-MMH [9]): 449000 M⁻¹ s⁻¹; t½ (mouse GLP1R-MMH [9]): 1.3 min; 100 nM hdesA-GLP1_GLP1R-MMH Bound (RU) [10]: 13 RU; Kd [10]: 3.56 nM; koff [10]: 0.000108 s⁻¹; kon [10]: 30400 M⁻¹ s⁻¹; t½ [10]: 107 min; % Inhibition of human GLP1R activation by 40 pM GLP1 (CRE-luciferase reporter) [11]: 100%; IC50 [M] of inhibition of human GLP1R activation by 40 pM GLP1 (CRE-luciferase reporter) [11]: 1.69e-09 M
